In patent US20210277441A1, “METHOD OF SELECTING A POLYPEPTIDE OF INTEREST” (IMPERIAL COLLEGE INNOVATIONS LIMITED, priority 2018, published 2021):

Assays:
[1] = test system: O=C(O)c1ccccc1[N+](=O)[O-]; assay: purified protein, by the assay type; settings: other: cofactor NADH; enzyme 1 uM
O=[N+]([O-])c1ccc(CO)cc1 = assay: purified protein, by the assay type; settings: other: cofactor NADH; enzyme 1 uM

| Substance | Km [1] | Km (O=[N+]([O-])c1ccc(CO)cc1) | kcat (O=[N+]([O-])c1ccc(CO)cc1) |
| --- | --- | --- | --- |
| Enterobacter cloacae nitroreductase (EntNFSB) variant EntNFSB-s1, S40A/T41I/F124A, SEQ ID NO: 38 (Enterobacter cloacae; F124A/S40A/T41I) | 4.05 mM |  |  |
| Enterobacter cloacae nitroreductase (EntNFSB), wild type, SEQ ID NO: 37 (Enterobacter cloacae) |  | 9.52 mM mM | 8.76 min-1 min-1 |
